Paper PMC8137920, “Self-association of MreC as a regulatory signal in bacterial cell wall elongation” (Nature Communications, 2021)

B1: MreC from Pseudomonas aeruginosa, periplasmic form, residues 15-330 (domain or fragment, Pseudomonas aeruginosa PAO1, UniProt Q9HVU1 15-330, looked up)
chain: RFDYLEPVRSKLGMVLTPFYGLAEMPVRAWEGVRDQFSSRSELIAENERLKAESLLMQRRVQKLAALTEQNVRLRELLNSAALVDDKVLVSELIGVDPNPFTQRIMIDKGENDGVFVGQPVLDASGLMGQVVEVMPYTARVLLLTDTTHSIPVQVNRNGLRAIAVGTGNPERLELRYVADTADIKEGDLLVSSGLGQRFPAGYPVATVKEVIHDSGQPFAVVRAVPTAKMNRSRYVLLVFSDSRTPEQRANDAAEAQEEADKKAAAGAQAPQPAAQPAAAPSPATPAAQGAAQQPAAAPAPAPTQPAAPAANGGRR
notes: MreC, Pseudomonas aeruginosa PAO1, residues 15-330; lacks the first 14 amino acids (cytoplasmic residues and TM region); The results call it only 'MreCPa' (periplasmic form); also called MreCPa; MreCPa(15-330); not shown: GST, N-terminal, cleaved
B2: MreC from Pseudomonas aeruginosa lacking the TM region and the first 21 residues of its N-terminal helix, residues 36-330 (domain or fragment, Pseudomonas aeruginosa PAO1, UniProt Q9HVU1 36-330, looked up)
chain: LAEMPVRAWEGVRDQFSSRSELIAENERLKAESLLMQRRVQKLAALTEQNVRLRELLNSAALVDDKVLVSELIGVDPNPFTQRIMIDKGENDGVFVGQPVLDASGLMGQVVEVMPYTARVLLLTDTTHSIPVQVNRNGLRAIAVGTGNPERLELRYVADTADIKEGDLLVSSGLGQRFPAGYPVATVKEVIHDSGQPFAVVRAVPTAKMNRSRYVLLVFSDSRTPEQRANDAAEAQEEADKKAAAGAQAPQPAAQPAAAPSPATPAAQGAAQQPAAAPAPAPTQPAAPAANGGRR
notes: MreC, Pseudomonas aeruginosa PAO1, residues 36-330; also called MreCPa(36-330); MreCPa; not shown: GST, N-terminal, cleaved

How the values were obtained:
[1] = molecular target: the molecule itself; test: AUC; sedimentation velocity (SV-AUC), 0.8 mg/ml protein, 25 mM CHES pH 9.0, 150 mM NaCl, 10 mM MgCl2, 62,000 g, 20 °C, absorbance at 280 nm, c(s) analysis with Sedfit
[2] = molecular target: the molecule itself; test: negative-staining electron microscopy; purified protein concentrated in 25 mM CHES pH 9.0, 150 mM NaCl, 10 mM MgCl2; mica-carbon flotation, 2% sodium silico tungstate pH 7.4

Protein	binding result [1]	binding result [2]
B1	binds	–
B2	–	binds
